One block for each binder: values may come before it.
Columns and labels:
[1] = molecular target: T1, 4H2649-AA; assay: two-hybrid library CCmax;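 also: natural log of median RNA to DNA barcode read ratio; higher means stronger binding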
T1 chain: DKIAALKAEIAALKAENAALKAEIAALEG

[2] = molecular target: T2, 4H2698-AA; assay: two-hybrid library CCmax; conditions: mean of both orientations;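 also: natural log of median RNA to DNA barcode read ratio; higher means stronger binding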
T2 chain: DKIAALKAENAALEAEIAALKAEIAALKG

[3] = molecular target: T3, 4H2725-AA; assay: two-hybrid library CCmax; conditions: mean of both orientations;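 also: natural log of median RNA to DNA barcode read ratio; higher means stronger binding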
T3 chain: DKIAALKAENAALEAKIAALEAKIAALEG

[4] = molecular target: T4, 4H2865-AA; assay: two-hybrid library CCmax; conditions: mean of both orientations;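 also: natural log of median RNA to DNA barcode read ratio; higher means stronger binding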
T4 chain: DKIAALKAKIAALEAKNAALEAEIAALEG

[5] = molecular target: T5, 4H3009-AA; assay: two-hybrid library CCmax; conditions: mean of both orientations;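 also: natural log of median RNA to DNA barcode read ratio; higher means stronger binding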
T5 chain: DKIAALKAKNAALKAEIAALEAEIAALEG

[6] = molecular target: T6, 4H3016-AA; assay: two-hybrid library CCmax; conditions: mean of both orientations;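 also: natural log of median RNA to DNA barcode read ratio; higher means stronger binding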
T6 chain: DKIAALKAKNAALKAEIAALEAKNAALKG

[7] = molecular target: T7, 4H310-AA; assay: two-hybrid library CCmax; conditions: mean of both orientations
T7 chain: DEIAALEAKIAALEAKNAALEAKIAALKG

[8] = molecular target: T8, 4H3120-AA; assay: two-hybrid library CCmax; conditions: mean of both orientations
T8 chain: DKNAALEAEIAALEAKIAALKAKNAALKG

[9] = molecular target: T9, 4H3130-AA; assay: two-hybrid library CCmax; conditions: mean of both orientations
T9 chain: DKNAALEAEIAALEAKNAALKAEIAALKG

[10] = molecular target: T10, 4H3165-AA; assay: two-hybrid library CCmax; conditions: mean of both orientations
T10 chain: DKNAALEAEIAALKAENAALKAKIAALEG

[11] = molecular target: T11, 4H3381-AA; assay: two-hybrid library CCmax; conditions: mean of both orientations
T11 chain: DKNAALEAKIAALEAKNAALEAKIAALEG

[12] = molecular target: T12, 4H3395-AA; assay: two-hybrid library CCmax; conditions: mean of both orientations
T12 chain: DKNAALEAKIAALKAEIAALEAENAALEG

[13] = molecular target: T13, 4H3410-AA; assay: two-hybrid library CCmax; conditions: mean of both orientations
T13 chain: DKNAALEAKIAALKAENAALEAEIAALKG

[14] = molecular target: T14, 4H3590-AA; assay: two-hybrid library CCmax; conditions: mean of both orientations
T14 chain: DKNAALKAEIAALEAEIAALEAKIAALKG

[15] = molecular target: T15, 4H3697-AA; assay: two-hybrid library CCmax; conditions: mean of both orientations
T15 chain: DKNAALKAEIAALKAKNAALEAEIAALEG

[16] = molecular target: T16, 4H3753-AA; assay: two-hybrid library CCmax; conditions: mean of both orientations
T16 chain: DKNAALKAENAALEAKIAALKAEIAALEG

[17] = molecular target: T17, 4H3865-AA; assay: two-hybrid library CCmax; conditions: mean of both orientations
T17 chain: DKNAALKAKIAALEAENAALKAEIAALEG

[18] = molecular target: T18, 4H458-AA; assay: two-hybrid library CCmax; conditions: mean of both orientations
T18 chain: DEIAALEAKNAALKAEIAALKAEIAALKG

[19] = molecular target: T19, 4H485-AA; assay: two-hybrid library CCmax; conditions: mean of both orientations
T19 chain: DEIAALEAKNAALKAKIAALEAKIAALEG

[20] = molecular target: T20, 4H536-AA; assay: two-hybrid library CCmax; conditions: mean of both orientations
T20 chain: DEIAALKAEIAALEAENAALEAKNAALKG

[21] = molecular target: T21, 4H570-AA; assay: two-hybrid library CCmax; conditions: mean of both orientations
T21 chain: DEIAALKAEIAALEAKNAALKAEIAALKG

[22] = molecular target: T22, 4H629-AA; assay: two-hybrid library CCmax; conditions: mean of both orientations
T22 chain: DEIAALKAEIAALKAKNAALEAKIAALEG

[23] = molecular target: T23, 4H710-AA; assay: two-hybrid library CCmax; conditions: mean of both orientations
T23 chain: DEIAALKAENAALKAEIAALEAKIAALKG

[24] = molecular target: T24, 4H745-AA; assay: two-hybrid library CCmax; conditions: mean of both orientations
T24 chain: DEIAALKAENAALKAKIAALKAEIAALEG

[25] = molecular target: T25, 4H797-AA; assay: two-hybrid library CCmax; conditions: mean of both orientations
T25 chain: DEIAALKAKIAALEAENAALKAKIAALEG

[26] = molecular target: T26, 4H850-AA; assay: two-hybrid library CCmax; conditions: mean of both orientations
T26 chain: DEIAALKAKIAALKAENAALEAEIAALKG

[27] = molecular target: T27, 4H891-AA; assay: two-hybrid library CCmax; conditions: mean of both orientations
T27 chain: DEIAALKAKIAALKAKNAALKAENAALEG

[28] = molecular target: T28, 4H909-AA; assay: two-hybrid library CCmax; conditions: mean of both orientations
T28 chain: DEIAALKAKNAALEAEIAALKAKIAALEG

[29] = molecular target: T29, 4H930-AA; assay: two-hybrid library CCmax; conditions: mean of both orientations
T29 chain: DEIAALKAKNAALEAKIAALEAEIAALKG

[30] = molecular target: T30, 4H94-AA; assay: two-hybrid library CCmax; conditions: mean of both orientations
T30 chain: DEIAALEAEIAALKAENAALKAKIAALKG

[31] = molecular target: T31, 4H477-bN; assay: two-hybrid library CCNG1
T31 chain: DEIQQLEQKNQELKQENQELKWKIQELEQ

[32] = molecular target: T32, 4H492-bN; assay: two-hybrid library CCNG1
T32 chain: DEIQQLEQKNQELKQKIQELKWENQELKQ

[33] = molecular target: T33, 4H741-bN; assay: two-hybrid library CCNG1
T33 chain: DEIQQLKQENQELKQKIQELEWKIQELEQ

[34] = molecular target: T34, 4H932-bN; assay: two-hybrid library CCNG1
T34 chain: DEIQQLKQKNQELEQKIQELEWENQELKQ

[35] = molecular target: T35, 4H492-bA; assay: two-hybrid library CCNG1
T35 chain: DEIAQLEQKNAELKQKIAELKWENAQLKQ

[36] = molecular target: T36, 4H741-bA; assay: two-hybrid library CCNG1
T36 chain: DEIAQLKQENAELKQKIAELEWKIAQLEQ

interaction score [1]: 0.376
interaction score [2]: -1.14
interaction score [3]: 0.985
interaction score [4]: -1.38
interaction score [5]: -0.366
interaction score [6]: -1.64
interaction score [7]: -0.563
interaction score [8]: -1.41
interaction score [9]: -0.528
interaction score [10]: 1.07
interaction score [11]: -1.34
interaction score [12]: -1.27
interaction score [13]: -0.287
interaction score [14]: -0.789
interaction score [15]: -1.81
interaction score [16]: -1.64
interaction score [17]: -1.59
interaction score [18]: -1.33
interaction score [19]: -1.19
interaction score [20]: 0.807
interaction score [21]: 1.86
interaction score [22]: -0.681
interaction score [23]: -1.42
interaction score [24]: -0.16
interaction score [25]: 0.345
interaction score [26]: 1.99
interaction score [27]: -1.86
interaction score [28]: -1.6
interaction score [29]: -0.569
interaction score [30]: 2.21
Binder: DKIAALKAEIAALKAENAALKAEIAALEG [4H2649-AA]

interaction score [31]: -1.14
interaction score [32]: -0.94
interaction score [33]: -1.17
interaction score [34]: -0.0984
Binder: DEIQQLEQKNQELKQENQELKWKIQELEQ [4H477-bN]

interaction score [35]: -0.566
interaction score [36]: -1.59
Binder: DEIAQLEQKNAELKQKIAELKWENAQLKQ [4H492-bA]

Source: paper PMC10397247
